T1: 6xHIS-Nba1_(202-289)-SNAP (S. cerevisiae, UniProt Q08229 202-289)
T1 construct: Nba1, S. cerevisiae, residues 202-289; also called the PxxP site; source: E. coli BL21DE3, purified (HisTrap HP, size-exclusion chromatography); not shown: 6xHIS, N-terminal, kept; SNAP-tag, C-terminal, kept
T1 sequence (looked up): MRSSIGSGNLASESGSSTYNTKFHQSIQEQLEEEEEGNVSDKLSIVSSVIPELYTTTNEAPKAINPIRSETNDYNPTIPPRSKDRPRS


Biological target: T1, 6xHIS-Nba1_(202-289)-SNAP
Assay: SPR; Biacore X100; GST-SH3 domains captured on an anti-GST antibody CM5 chip, free GST on the reference cell; 6xHis-Nba1_(202-289)-SNAP as analyte; HBSEP buffer (10 mM Hepes, 150 mM NaCl, 3 mM EDTA, 0.05% Tween 20, pH 7.4); equilibrium KD
Details: both partners purified

Binder	Kd
GST-SH3_(Boi1) (domain or fragment, S. cerevisiae, UniProt P38041 13-77, looked up, SH3 domain of Boi1, S. cerevisiae; also called GST fusion to SH3_(Boi1); source: E. coli BL21DE3, purified (GSTrap, Superdex 200) for SPR; coupled to glutathione beads from extract for the pull-down; not shown: GST, N-terminal, kept) KSFPLYIAVNQYSKRMEDELNMKPGDKIKVITDDGEYNDGWYYGRNLRTKEEGLYPAVFTKRIAI	~0.74 µM
GST-SH3_(Boi2) (domain or fragment, S. cerevisiae, UniProt P39969 43-107, looked up, SH3 domain of Boi2, S. cerevisiae; source: E. coli BL21DE3, purified (GSTrap, Superdex 200); not shown: GST, N-terminal, kept) GNFPMYIAINEYFKRMEDELDMKPGDKIKVITDDEEYKDGWYFGRNLRTNEEGLYPVVFTQKITV	1.97 µM
